Experimental data as given in US20180346592A1.

Tests used:
[1] = biological target: GPC3 on the surface of hepatic cancer cell lines (SK-Hep1-GPC3 transfectant, HepG2, Huh7, Hep3B, SNU398) (human) (UniProt P51654); test: FACS, SK-Hep1-GPC3 #9 cells; lower left panel
[2] = biological target: GPC3 on the surface of hepatic cancer cell lines (SK-Hep1-GPC3 transfectant, HepG2, Huh7, Hep3B, SNU398) (human) (UniProt P51654); test: FACS, SK-Hep1-GPC3 cells; lower right panel
[3] = biological target: GPC3 on the surface of hepatic cancer cell lines (SK-Hep1-GPC3 transfectant, HepG2, Huh7, Hep3B, SNU398) (human) (UniProt P51654); test: FACS, SK-Hep1-GPC3 #9 cells; upper right panel
[4] = biological target: GPC3 on the surface of hepatic cancer cell lines (SK-Hep1-GPC3 transfectant, HepG2, Huh7, Hep3B, SNU398) (human) (UniProt P51654); test: FACS, HepG2 cells; lower right panel

- Mean, FL2-H [1]: 5.79
- Mean, FL2-H [2]: 3.49
- Mean, FL2-H [3]: 4.76
- Mean, FL2-H [4]: 2.87
Substance: hIgG (antibody)
